In general, Kd refers to the concentration at which binding is half-saturated. Low readings indicate tighter binding, high ones weaker binding. A word on the koff: it is the first-order rate constant of dissociation. A lower koff goes with a long-lived complex. In general, kon refers to the second-order rate constant of association. What is called IC50 is the point on the concentration scale where inhibition reaches its midpoint. Higher therefore signals lower potency.

Assay [1] has as its target T1, human ST2L, full length, on cells (human, UniProt Q01638 19-556).
T1 sequence: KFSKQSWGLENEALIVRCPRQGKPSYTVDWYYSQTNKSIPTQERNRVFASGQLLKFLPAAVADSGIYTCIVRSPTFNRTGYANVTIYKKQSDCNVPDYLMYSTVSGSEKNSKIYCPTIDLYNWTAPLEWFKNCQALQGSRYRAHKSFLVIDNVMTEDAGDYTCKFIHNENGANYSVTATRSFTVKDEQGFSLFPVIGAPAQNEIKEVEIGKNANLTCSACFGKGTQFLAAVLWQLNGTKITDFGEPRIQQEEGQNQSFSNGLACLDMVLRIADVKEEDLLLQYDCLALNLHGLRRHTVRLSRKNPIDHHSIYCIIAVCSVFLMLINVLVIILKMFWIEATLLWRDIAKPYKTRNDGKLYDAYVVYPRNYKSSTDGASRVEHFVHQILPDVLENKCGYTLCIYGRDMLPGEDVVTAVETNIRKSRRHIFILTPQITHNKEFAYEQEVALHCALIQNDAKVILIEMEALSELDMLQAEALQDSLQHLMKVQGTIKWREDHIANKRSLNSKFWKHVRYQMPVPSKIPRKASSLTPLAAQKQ
In words: cell-based or functional assay.

For assay [2], the target named is T2, human ST2L extracellular domain with C-terminal His6 tag (human, UniProt Q01638 19-328).
T2 construct: also called huST2L-ECD; ST2L-ECD
T2 sequence: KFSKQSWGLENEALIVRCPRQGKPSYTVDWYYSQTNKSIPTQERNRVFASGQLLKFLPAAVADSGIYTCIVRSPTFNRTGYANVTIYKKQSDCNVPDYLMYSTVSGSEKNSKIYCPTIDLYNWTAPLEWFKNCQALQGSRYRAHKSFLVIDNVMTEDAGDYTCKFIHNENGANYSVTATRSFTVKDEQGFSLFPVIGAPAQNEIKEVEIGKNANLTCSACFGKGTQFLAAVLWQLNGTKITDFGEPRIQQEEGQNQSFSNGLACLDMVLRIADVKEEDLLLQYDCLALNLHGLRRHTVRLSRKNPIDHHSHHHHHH
In words: SPR, mAb captured, ST2L-ECD in solution. For orientation: In SPR one partner is held on a chip, and binding of the other changes the refractive index at the surface.

Assay [3] concerns the target T3, cynomolgus (Macaca fascicularis) ST2L extracellular domain with C-terminal His6 tag (Macaca fascicularis (cynomolgus), UniProt Q01638 19-321 (human entry)).
T3 construct: also called cyno ST2L-ECD; cynoST2L-ECD
T3 chain: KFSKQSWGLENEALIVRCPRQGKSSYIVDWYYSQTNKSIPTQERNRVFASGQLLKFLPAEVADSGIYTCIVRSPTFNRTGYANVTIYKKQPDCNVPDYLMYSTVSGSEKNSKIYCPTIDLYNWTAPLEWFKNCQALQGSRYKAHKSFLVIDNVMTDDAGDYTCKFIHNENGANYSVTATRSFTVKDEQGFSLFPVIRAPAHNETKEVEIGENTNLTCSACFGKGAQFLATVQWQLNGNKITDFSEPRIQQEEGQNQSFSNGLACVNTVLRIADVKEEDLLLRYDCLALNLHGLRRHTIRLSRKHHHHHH
Kind of assay: SPR, mAb captured, ST2L-ECD in solution.

The target in assay [4] is T2, human ST2L extracellular domain with …. In words: RLB ELISA: biotinylated IL-33 on coated huST2L-ECD, antibody titrated. The gist of the method: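 Plates coated 16 h at 4 °C with His6-tagged ST2L-ECD (human aa 19-328, 4 μg/ml; cyno aa 19-321, 2 μg/ml). Titrated mAbs applied 1 h at RT, then biotinylated IL-33 added 30 min (human 112-270 at 100 ng/ml final; cyno 112-269 at 200 ng/ml final). Bound ligand detected with streptavidin-HRP/TMB, OD450.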
In general terms: ELISA stands for enzyme-linked immunosorbent assay.

The target in assay [5] is T4, HH-ST2L (human ST2L Domains I and II), wild type (human, UniProt Q01638 19-205).
T4 construct: also called ST2L-D1D2
T4 sequence: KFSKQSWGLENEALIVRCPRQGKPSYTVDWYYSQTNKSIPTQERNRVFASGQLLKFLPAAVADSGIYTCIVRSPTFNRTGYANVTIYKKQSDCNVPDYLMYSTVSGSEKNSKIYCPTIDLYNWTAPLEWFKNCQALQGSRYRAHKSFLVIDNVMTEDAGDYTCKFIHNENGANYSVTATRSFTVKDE
In words: SPR, ProteOn XPR36, 25 C; mAb captured on anti-Fc surface, ST2L-D1D2 (HH-ST2L) protein injected; 1:1 model. As for the experimental part:
Binding studies were performed using the ProteOn XPR36 Protein Interaction Array system (Bio-Rad) (Bravman T, et al. Anal Biochem 358:281-288, 2006). […] Individual anti-ST2L mAb was then captured by flowing (1 μg/mL) antibody solution prepared in PBS containing 0.5% Nonidet P-40 and 0.5% Na-deoxycholate). The signal in the surfaces reached ˜250 resonance units (RU, 1 RU=1 pg protein/mm²) in the anti-Fc-coated surfaces, confirming that these antibodies specifically capture anti-ST2L mAbs. After 90° rotation of the fluid system, wild type of ST2L-D1D2 or variant proteins (0.5 mg/mL in PBS containing 0.5% Nonidet P-40 and 0.5% Na-deoxycholate) was injected in the parallel flow channels. All of these assays were performed at 25° C. The ST2L-D1D2-dependent signals on the surfaces were obtained by double referencing, subtracting the response observed on surfaces immobilizing the antibodies alone, and the signal observed injecting the vehicle alone (which allows correction for binding-independent responses). The resulting sensorgrams were fitted by the simplest 1:1 interaction model (ProteOn analysis software), to obtain the corresponding association and dissociation rate constants (kₐ and kd).

B1: STLM208 (antibody, V domains shown)
VH: EVQLLESGGGLVQPGGSLRLSCAASGFTFSIYDMIWVRQAPGKGLEWVSSIRGEGGGTYYADSVKGRFTISRDNSKNTLYLQMNSLRAEDTAVYYCARDPWSTEGSFFVLDYWGQGTLVTVSS
VL: EIVLTQSPATLSLSPGERATLSCRASQSVDDDLAWYQQKPGQAPRLLIYDASNRATGIPARFSGSGSGTDFTLTISSLEPEDFAVYYCQQYITAPLTFGQGTKVEIK
notes: frameworks VH3-23 / Vk-L6
Take B1: the “RGA IC50” value in assay [1] came to 0.61 µg/mL. In assay [2], this molecule had a Kd of 11 pM, an off-rate constant (koff) of 6.76e-05 s⁻¹ and a kon of 5.97e+06 M⁻¹ s⁻¹. In assay [3], this molecule gave an equilibrium dissociation constant (Kd) of 5 pM, an off-rate constant (koff) of 7.02e-05 s⁻¹ and an on-rate (kon) of 1.39e+07 M⁻¹ s⁻¹. This molecule registered an IC50 in assay [4] of 0.47 µg/mL. Moreover, in assay [5], the off-rate constant (koff) came to 0.000122 s⁻¹ and the kon came out at 1.14e+07 M⁻¹ s⁻¹.

(Values after patent publication US20170066831A1 (Janssen / Centocor, published 2017).)
